In article PMC3136212, “Identification of the DNA-Binding Domains of Human Replication Protein A That Recognize G-Quadruplex DNA”:

Key:
RPA-C [1] = target: T1, RPA-C (human, UniProt P27694 432-595, V435T;W442Q;V465T;V469T;F523S;F567S;I571T); test: FP; 10 mM NaCl; FP: 0.060 uM FAM-oligo, 10-1500 mM NaCl, room temperature; CD: Buffer A 25 mM Tris pH 7.5, 2 mM MgCl2, 6% glycerol, 1 mM DTT, 100 (or 10) mM NaCl, room temperature; parameters: unit not given here; details: protein: recombinant, tags: N-terminal His, thrombin-cleaved, label: 5' 6-FAM
T1 sequence (P27694 432-595 V435T/W442Q/V465T/V469T/F523S/F567S/I571T): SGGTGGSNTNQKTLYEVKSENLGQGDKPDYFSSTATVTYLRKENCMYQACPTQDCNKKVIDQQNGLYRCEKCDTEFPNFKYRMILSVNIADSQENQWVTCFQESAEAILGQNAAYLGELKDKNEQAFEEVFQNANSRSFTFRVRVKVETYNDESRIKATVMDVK

RPA-CDE-core [2] = target: T2, RPA-CDE-core (human, UniProt P27694;P15927;P35244 436-616;43-171;1-121); test: as above; parameters: unit not given here; details: protein: recombinant, tags: N-terminal His, thrombin-cleaved, copies: 1;1;1, label: 5' 6-FAM
T2 sequence (P27694 436-616, chain 1 of 3): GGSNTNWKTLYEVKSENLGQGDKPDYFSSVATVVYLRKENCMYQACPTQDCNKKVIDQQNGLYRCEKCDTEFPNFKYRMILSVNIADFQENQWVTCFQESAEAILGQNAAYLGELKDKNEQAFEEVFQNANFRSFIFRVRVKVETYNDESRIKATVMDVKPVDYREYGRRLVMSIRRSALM
T2 sequence (P15927 43-171, chain 2 of 3): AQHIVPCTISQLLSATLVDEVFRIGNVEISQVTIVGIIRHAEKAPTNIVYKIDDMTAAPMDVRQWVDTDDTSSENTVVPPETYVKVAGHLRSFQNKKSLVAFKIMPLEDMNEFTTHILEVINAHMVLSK
T2 sequence (P35244 whole entry, chain 3 of 3): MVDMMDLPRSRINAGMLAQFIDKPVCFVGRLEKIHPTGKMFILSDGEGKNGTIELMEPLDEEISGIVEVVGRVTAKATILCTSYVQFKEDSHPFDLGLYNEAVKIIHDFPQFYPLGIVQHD

RPA-DE [3] = target: T3, RPA-DE (human, UniProt P15927;P35244 43-171;1-121); test: as above; parameters: unit not given here; details: protein: recombinant; tags: N-terminal His, thrombin-cleaved; copies: 1;1; label: 5' 6-FAM; intramolecular G4, antiparallel at 100 mM NaCl, mixed/parallel at 10 mM NaCl
T3 sequence (P15927 43-171, chain 1 of 2): as the sequence (P15927 43-171, chain 2 of 3) above
T3 sequence (P35244 whole entry, chain 2 of 2): as the sequence (P35244 whole entry, chain 3 of 3) above

RPA-AB [4] = target: T4, RPA-AB (human, UniProt P27694 181-441); test: FP; 100 mM NaCl; FP: 0.060 uM FAM-oligo, 10-1500 mM NaCl, room temperature; CD: Buffer A 25 mM Tris pH 7.5, 2 mM MgCl2, 6% glycerol, 1 mM DTT, 100 (or 10) mM NaCl, room temperature; parameters: unit not given here; details: protein: recombinant, tags: N-terminal His6, thrombin-cleaved, label: 5' 6-FAM
T4 sequence (P27694 181-441): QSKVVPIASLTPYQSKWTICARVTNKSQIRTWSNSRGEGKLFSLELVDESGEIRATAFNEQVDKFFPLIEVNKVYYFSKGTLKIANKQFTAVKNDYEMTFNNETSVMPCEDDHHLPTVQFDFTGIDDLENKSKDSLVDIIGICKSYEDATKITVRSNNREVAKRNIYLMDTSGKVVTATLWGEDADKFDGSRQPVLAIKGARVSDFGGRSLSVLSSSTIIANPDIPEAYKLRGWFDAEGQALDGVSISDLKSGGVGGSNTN

RPA-CDE-core [5] = target: T2, RPA-CDE-core; test: as above; parameters: unit not given here; details: protein: recombinant, tags: N-terminal His, thrombin-cleaved, copies: 1;1;1, label: 5' 6-FAM
RPA-AB [6] = target: T4, RPA-AB; test: FP; 500 mM NaCl; FP: 0.060 uM FAM-oligo, 10-1500 mM NaCl, room temperature; CD: Buffer A 25 mM Tris pH 7.5, 2 mM MgCl2, 6% glycerol, 1 mM DTT, 100 (or 10) mM NaCl, room temperature; details: protein: recombinant, tags: N-terminal His6, thrombin-cleaved, label: 5' 6-FAM
RPA-CDE-core [7] = target: T2, RPA-CDE-core; test: as above; details: protein: recombinant, tags: N-terminal His, thrombin-cleaved, copies: 1;1;1, label: 5' 6-FAM
[8] = target: T5, RPA (full-length heterotrimer RPA1/RPA2/RPA3) (human, UniProt P27694;P15927;P35244 1-616;1-270;1-121); test: FP; 1250 mM NaCl; FP: 0.060 uM FAM-oligo, 10-1500 mM NaCl, room temperature; CD: Buffer A 25 mM Tris pH 7.5, 2 mM MgCl2, 6% glycerol, 1 mM DTT, 100 (or 10) mM NaCl, room temperature; parameters: unit not given here; details: protein: recombinant; copies: 1;1;1; label: 5' 6-FAM; intramolecular G4, antiparallel at 100 mM NaCl, mixed/parallel at 10 mM NaCl
T5 sequence (P27694 whole entry, chain 1 of 3): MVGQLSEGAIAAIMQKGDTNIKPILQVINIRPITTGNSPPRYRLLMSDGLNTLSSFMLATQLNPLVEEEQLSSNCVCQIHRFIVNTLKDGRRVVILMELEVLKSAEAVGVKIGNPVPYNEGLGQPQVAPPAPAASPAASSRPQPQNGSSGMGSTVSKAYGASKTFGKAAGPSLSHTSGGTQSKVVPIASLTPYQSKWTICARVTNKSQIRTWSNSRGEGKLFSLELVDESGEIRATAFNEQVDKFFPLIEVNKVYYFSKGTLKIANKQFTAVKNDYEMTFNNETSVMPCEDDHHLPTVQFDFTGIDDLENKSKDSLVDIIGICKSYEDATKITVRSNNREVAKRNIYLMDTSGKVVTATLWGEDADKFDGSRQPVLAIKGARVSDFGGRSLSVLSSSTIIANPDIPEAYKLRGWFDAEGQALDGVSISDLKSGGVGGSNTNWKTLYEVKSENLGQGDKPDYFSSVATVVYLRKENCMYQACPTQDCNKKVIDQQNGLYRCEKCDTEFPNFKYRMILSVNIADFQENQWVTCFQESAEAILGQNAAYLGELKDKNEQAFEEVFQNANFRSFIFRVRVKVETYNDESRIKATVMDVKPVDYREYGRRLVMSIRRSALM
T5 sequence (P15927 whole entry, chain 2 of 3): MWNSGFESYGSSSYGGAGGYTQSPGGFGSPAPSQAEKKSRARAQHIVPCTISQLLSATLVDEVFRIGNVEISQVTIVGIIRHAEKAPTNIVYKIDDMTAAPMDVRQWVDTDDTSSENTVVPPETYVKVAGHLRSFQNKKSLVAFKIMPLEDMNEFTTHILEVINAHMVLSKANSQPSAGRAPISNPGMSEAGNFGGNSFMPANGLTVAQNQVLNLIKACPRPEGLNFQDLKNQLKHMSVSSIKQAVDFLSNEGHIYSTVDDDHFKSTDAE
T5 sequence (P35244 whole entry, chain 3 of 3): as the sequence (P35244 whole entry, chain 3 of 3) above

[9] = target: T5, RPA (full-length heterotrimer …); test: FP; 1500 mM NaCl; FP: 0.060 uM FAM-oligo, 10-1500 mM NaCl, room temperature; CD: Buffer A 25 mM Tris pH 7.5, 2 mM MgCl2, 6% glycerol, 1 mM DTT, 100 (or 10) mM NaCl, room temperature; parameters: unit not given here; details: protein: recombinant; copies: 1;1;1; label: 5' 6-FAM; intramolecular G4, antiparallel at 100 mM NaCl, mixed/parallel at 10 mM NaCl
[10] = target: T5, RPA (full-length heterotrimer …); test: FP; 500 mM NaCl; stoichiometric (equilibrium only at 1250 mM); FP: 0.060 uM FAM-oligo, 10-1500 mM NaCl, room temperature; CD: Buffer A 25 mM Tris pH 7.5, 2 mM MgCl2, 6% glycerol, 1 mM DTT, 100 (or 10) mM NaCl, room temperature; details: protein: recombinant; copies: 1;1;1; label: 5' 6-FAM; intramolecular G4, antiparallel at 100 mM NaCl, mixed/parallel at 10 mM NaCl
RPA-DE [11] = target: T3, RPA-DE; test: FP; 10 mM NaCl; FP: 0.060 uM FAM-oligo, 10-1500 mM NaCl, room temperature; CD: Buffer A 25 mM Tris pH 7.5, 2 mM MgCl2, 6% glycerol, 1 mM DTT, 100 (or 10) mM NaCl, room temperature; details: protein: recombinant; tags: N-terminal His, thrombin-cleaved; copies: 1;1; label: 5' 6-FAM
RPA-AB [12] = target: T4, RPA-AB; test: FP; 1250 mM NaCl; FP: 0.060 uM FAM-oligo, 10-1500 mM NaCl, room temperature; CD: Buffer A 25 mM Tris pH 7.5, 2 mM MgCl2, 6% glycerol, 1 mM DTT, 100 (or 10) mM NaCl, room temperature; parameters: unit not given here; details: protein: recombinant; tags: N-terminal His6, thrombin-cleaved; label: 5' 6-FAM
RPA-CDE-core [13] = target: T2, RPA-CDE-core; test: as above; parameters: unit not given here; details: protein: recombinant; tags: N-terminal His, thrombin-cleaved; copies: 1;1;1; label: 5' 6-FAM
RPA-AB [14] = target: T4, RPA-AB; test: FP; 1500 mM NaCl; FP: 0.060 uM FAM-oligo, 10-1500 mM NaCl, room temperature; CD: Buffer A 25 mM Tris pH 7.5, 2 mM MgCl2, 6% glycerol, 1 mM DTT, 100 (or 10) mM NaCl, room temperature; parameters: unit not given here; details: protein: recombinant; tags: N-terminal His6, thrombin-cleaved; label: 5' 6-FAM
[15] = target: T5, RPA (full-length heterotrimer …); test: FP; 500 mM NaCl; stoichiometric; FP: 0.060 uM FAM-oligo, 10-1500 mM NaCl, room temperature; CD: Buffer A 25 mM Tris pH 7.5, 2 mM MgCl2, 6% glycerol, 1 mM DTT, 100 (or 10) mM NaCl, room temperature; parameters: unit not given here; details: protein: recombinant; copies: 1;1;1; label: 5' 6-FAM
RPA-C [16] = target: T1, RPA-C; test: FP; 10 mM NaCl; FP: 0.060 uM FAM-oligo, 10-1500 mM NaCl, room temperature; CD: Buffer A 25 mM Tris pH 7.5, 2 mM MgCl2, 6% glycerol, 1 mM DTT, 100 (or 10) mM NaCl, room temperature; details: protein: recombinant; tags: N-terminal His, thrombin-cleaved; label: 5' 6-FAM
[17] = target: T5, RPA (full-length heterotrimer …); test: FP; 500 mM NaCl; FP: 0.060 uM FAM-oligo, 10-1500 mM NaCl, room temperature; CD: Buffer A 25 mM Tris pH 7.5, 2 mM MgCl2, 6% glycerol, 1 mM DTT, 100 (or 10) mM NaCl, room temperature; details: protein: recombinant; copies: 1;1;1; label: 5' 6-FAM
RPA-DE [18] = target: T3, RPA-DE; test: CD titration; 10 mM NaCl; stabilizes antiparallel G4; FP: 0.060 uM FAM-oligo, 10-1500 mM NaCl, room temperature; CD: Buffer A 25 mM Tris pH 7.5, 2 mM MgCl2, 6% glycerol, 1 mM DTT, 100 (or 10) mM NaCl, room temperature; details: protein: recombinant; tags: N-terminal His, thrombin-cleaved; copies: 1;1; intramolecular G4
RPA-CDE-core [19] = target: T2, RPA-CDE-core; test: CD titration; 100 mM NaCl; unfolds G4, complete at protein:DNA 2; FP: 0.060 uM FAM-oligo, 10-1500 mM NaCl, room temperature; CD: Buffer A 25 mM Tris pH 7.5, 2 mM MgCl2, 6% glycerol, 1 mM DTT, 100 (or 10) mM NaCl, room temperature; details: protein: recombinant; tags: N-terminal His, thrombin-cleaved; copies: 1;1;1; intramolecular G4
RPA-C [20] = target: T1, RPA-C; test: CD titration; 10 mM NaCl; 254 nm peak decreases, 292 nm unchanged; FP: 0.060 uM FAM-oligo, 10-1500 mM NaCl, room temperature; CD: Buffer A 25 mM Tris pH 7.5, 2 mM MgCl2, 6% glycerol, 1 mM DTT, 100 (or 10) mM NaCl, room temperature; details: protein: recombinant; tags: N-terminal His, thrombin-cleaved; intramolecular G4
[21] = target: T5, RPA (full-length heterotrimer …); test: competition; FP, 0-10 uM unlabeled vs 60 nM FAM-Comp; FP: 0.060 uM FAM-oligo, 10-1500 mM NaCl, room temperature; CD: Buffer A 25 mM Tris pH 7.5, 2 mM MgCl2, 6% glycerol, 1 mM DTT, 100 (or 10) mM NaCl, room temperature; details: protein: recombinant; copies: 1;1;1
RPA-CDE-core [22] = target: T2, RPA-CDE-core; test: as above; details: protein: recombinant; tags: N-terminal His, thrombin-cleaved; copies: 1;1;1
[23] = intramolecular G4, antiparallel at 100 mM NaCl, mixed/parallel at 10 mM NaCl

## TAGGGGAAGGGTTGGAGTGGGTT (structured_DNA, 18-carbon spacer (sp18) at 5' end) [Gq23 (FP)]
RPA-C [1]; [23]
  Kd: 3.62
RPA-CDE-core [2]; [23]
  Kd: 0.16
RPA-DE [3]
  Kd: 6.68
RPA-AB [4]; [23]
  Kd: 0.44
RPA-CDE-core [5]; [23]
  Kd: 0.55
RPA-AB [6]; [23]
  Kd: 3.28
RPA-CDE-core [7]; [23]
  Kd: 11.9 µM
[8]
  Kd: 0.37
[9]
  Kd: 0.85
[10]
  Kd: ~0.04 0.02

## ATCCCCTTCCCAACCTCACCCAA (ssDNA, 18-carbon spacer (sp18) at 5' end) [Anti (Comp)]
RPA-DE [11]
  binding result: no binding
RPA-C [1]
  Kd: 3.32
RPA-CDE-core [2]
  Kd: 0.22
RPA-AB [4]
  Kd: 0.66
RPA-CDE-core [5]
  Kd: 0.42
RPA-AB [6]
  Kd: 1.79
RPA-CDE-core [7]
  Kd: 0.75
RPA-AB [12]
  Kd: 2.65
RPA-CDE-core [13]
  Kd: 2.81
RPA-AB [14]
  Kd: 2.45
[15]
  Kd: ~0.06

## AAAAAAAAAAAAAAAAAAAAAAA (ssDNA, 18-carbon spacer (sp18) at 5' end) [polyA]
RPA-C [16]
  binding result: no binding
RPA-DE [11]
  binding result: no binding
RPA-CDE-core [2]
  Kd: 0.53
RPA-AB [4]
  Kd: 1.83
RPA-CDE-core [5]
  Kd: 5.88
[17]
  Kd: 0.17

## TAGGGGAAGGGTTGGAGTGGGTT (structured_DNA) [Gq23 (CD, unlabeled)]
RPA-DE [18]
  binding result: binds
RPA-CDE-core [19]
  binding result: binds
RPA-C [20]
  binding result: binds

## ATCCCCTTCCCAACCTCACCCAA (ssDNA) [Comp competitor (unlabeled)]
[21]
  binding result: binds
RPA-CDE-core [22]
  binding result: binds
